The values below come from PMC3079881 (Developmental cell, 2011).

The data set deals with the molecule itself. Nature of the data set: negative-stain electron microscopy of purified complexes.

B1: Cdc11 (natural protein, S. cerevisiae, UniProt P32458 1-415, looked up)
chain: MSGIIDASSALRKRKHLKRGITFTVMIVGQSGSGRSTFINTLCGQQVVDTSTTILLPTDTSTEIDLQLREETVELEDDEGVKIQLNIIDTPGFGDSLDNSPSFEIISDYIRHQYDEILLEESRVRRNPRFKDGRVHCCLYLINPTGHGLKEIDVEFIRQLGSLVNIIPVISKSDSLTRDELKLNKKLIMEDIDRWNLPIYNFPFDEDEISDEDYETNMYLRTLLPFAIIGSNEVYEMGGDVGTIRGRKYPWGILDVEDSSISDFVILRNALLISHLHDLKNYTHEILYERYRTEALSGESVAAESIRPNLTKLNGSSSSSTTTRRNTNPFKQSNNINNDVLNPASDMHGQSTGENNETYMTREEQIRLEEERLKAFEERVQQELLLKRQELLQREKELREIEARLEKEAKIKQEE
B1: the binding result was “binds”.
